We go through 47 sequences from the NTF2 design screens of Basanta et al. (2020).

The nature of this series: protease stability score; higher = more stable; yeast display proteolysis, trypsin and chymotrypsin.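 Also: log10 excess protease needed over predicted unfolded state with 0 meaning unfolded.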
The sequence “DKSMQEEMERVARENDFHRLAELADPNVKWQYGDKHLHGRTAQREFVRLNHEAVDHLEVQDVKFHGENVEIDLVMTVNGKEIKVVLQAHVHNGRIKEMRWQVTNEDEKRKLEEAVS” displayed a protease stability score of -0.183. Sequence “DKTAAHVVHQFLRNVDTGDPKKASDNADPNVTINVGDKEIRGRENLQKEIDKQKKDWRQTVRVTSFKDHNGKVHVDARYTADVNGKPIDDTFQFEMQAHNGKLKYVNVQLDEDKKKEQDS” returned a protease stability score of 0.032. As for “DKTHAETVRKLVERGNWEELARMADKDAHVNYGNKSVHGRERVESLLKRFSSRVDHVDLKDVDVQGDHVHMRYVAVFDGRRVDVSAVIFVDNGRIKSIHYRATDEEVKRRMDELLD”, the protease stability score turned out to be 1.33.

“DNDAMRQANTLVEILNTGDPDRFVEYVDPNVDIKIGDKSIHGREDARRWVTELKRQMHIHLSVKRVDVEGEHLNLHADQVNDENGQPDKDHVLIIMRFHNGRVKVLKQEHKS” gave a protease stability score of 0.53. “DNDAREAARRLLDAWRTGDEDTVRDMADENAKVTVGDKTIQGRDHLVDWIHQHYHEQRVDVKSVHMDAQGDKVDVKLDAVSDRNGQPRRYVEHVKITMKNGKMKSLEMHREG”: the protease stability score was found to be 0.753.

Turning to “DNDHWRKIATDMIKALQEGDRQKVKKLVDKDAKARIGDRDVHGREHIVTLLYEMQQRIDHMQLVDVKVRGEEVVVRYHAKFNGKVVDVSITLHFRNGKVKEMRVDPRAVESLKK”, the protease stability score was found to be 1.22. The sequence “DNDKLAKDAVDTMDEVLQDGDEKKLNDLFDPNARLRVGDHEIHGREQIHDWIKTRLNQIDHIEMRIVHVRREGEKALARVTFVNQHNGKQDEREAVYRFTVENGRATFEEVNIK” returned a protease stability score of -0.116. Turning to “DNDRVRKAHKLMRVIETGDPDKVNEYVDPNVHVEYGDKTIHGREELKKFIEKERHEMRVELKRVSADATGNKVDIKVHRVLDKNGKPETNNVRIIIVWDGNKIKSVSFQKDK”, the protease stability score worked out at 0.849. In the case of “DNDTQHRLAERFNHAVETGDPDKIMKLVPEDVRFTVGDKEYHGRESLSKVIKDFRDHADRVKVESVRVNNGRIDVQMRYNRNGQDRVMTFLLTVHNGKIENVNIQSG” it was 1.58; in that of “DNEAARSARRNLKQIERGNEHKVREMADKNAHVRVGDKDLHGREDISTWVKKLKEEMRVRFDLRRVNDKGSTVDLDVTLEMTVNGKPVTMKVTAKLSIHNGKIQSLIWNISDEQKEQRKG”, 0.336; in that of “DNEDAKRVVKLAEHNDFKKWAENADKDVRMKVGDKTWHGRSQFSTAVERLQKNIDHVDLRSVKTHNGRVTIKEQQEVDGRKTDVRFRLQVHNGHIKRVEVQVTDEEDKKTMEKLLS”, -0.23. For “DNEDAQQAIQMLKAELDGDEERAAQLMDPNARFNIGDKEIHGRETFQHWLREVKKHMHVKIDRLEIDVEGDKVDVRMEFVQNHNGKPHRAEATVEVRAENGHVKEVTVDVKG”, the protease stability score was determined as 0.551.

Consider “DNEEEAKKFVEELKRQYDEGNEHQIANQAPENATARVGDKNYHGRENVETYLRQIVRRADTVEIRIRSVEVHGDNVVVDFHYVLEYNGTRRNVRMKLVLDDVNGRKVALVIVQS”, for which the protease stability score worked out at 0.572.

As to “DNEEHKVLEELIRAIQEGNEKDIKRLIDPNARVNVGDKTYHGREQIVKWWFDLQQELEFEIDIKRWHVNNGQIRADIKYVRNNNGKPESFRADMQVTASNGKFKSVSVHETK”, the protease stability score was found to be 1.43. Consider “DNEFREEVKKAIDTGDPLEMVRQADKDVEVHVGDKYWHGREQVEKLMTLWKEQVDHLHVDRITHEPGRVKVDAVAQFNGVEFRFNMVIHAHNGKIKSVQFKNTDEDVKKKLEKILD”, for which the protease stability score was -0.288.

Regarding “DNEKALERAEEAARAVARGNEDELRKLAPPDVSAQYGDHRINGMDQVVEQIKEMRRAVDHIKIQTIRKNGNSVTLTVELTYNGQQMHMHVEVEVHNGELKHVRMHVTDEERWRRQES”, the protease stability score is 0.855. The sequence “DNEKVARNAADKLMTAINTGDPDQFVKLFDENAHVDVGDKTWRGRDKLKEWARKIVEQVDHLRARVTHMDVDGDKASVVFVVTLNKNGKEHSEQHEATAEVSGEQAVFKSLRHK” came in with a protease stability score of 1.38. In turn, “DNENVNHVKTWFQNIQENNPDELIKLIDKDARLRVGDKEFHGREQAKKEIEKRIRHIELEFKHVQVDHHNGRVVAHAVYTQNRNGRPKKVNVRYVFQIHNGKIKRAEQDEDG” came in with a protease stability score of 0.263. In turn, “DNETVDEALKAFNKNDERNMMRLADENAEMEIGDTEYHGQEQVQTLLQKLNQQVDHREFHSIETEPNRIRVDYRAVFNGRDIRVHVHLEFENGRLTRVRFDVRDPRQQKHLQDLLK” returned a protease stability score of 0.344.

In turn, “DNEVAHNIMRAFKQQWRGNEDKALELMDPNAEVHVGNKQIHGMEEWVRRTAHKARRARVKVSRIDVTVHNGKVRIKMNYTVSVNGKPISWHADITVQADNGRAKHITQQVPEDLEERERG” returned a protease stability score of 0.112.

In turn, “DNKDQARRLLNELRKAMKQNDEDRMRQLMDPNARATYGDKTVHGREELAERIIKEVKRADHVDLQVDDIKTQGNKLTVEVTIRIDVNGKTINTRYVLYAEVSNGRFNIRQIHQQ” yielded a protease stability score of 0.544. Turning to “DNKERAEDWFRHMTEIWKQNDPDELQNNADPNVRVDVGDKQVQGRDKYKTQMETFKNRADHISIELKNIDVQGERIVVNFEATYDVNGRKEDKTAHILARVHNGHIVIKEVKNG”, the protease stability score is -0.073. The sequence “DNQDARKLQEYFRNMVTGNEQRAMQYMDKDVTVHVGDKVFHGMERAVKTLVQRLKEIRVHYKFKQVSVQGNKVNIKADVEEDDNGRPETKRLEMDVEWHNGKVKKVVIKNDR” yielded a protease stability score of 1.49. As for “DNRLQRWADRWLEVVETGNPEEIRKLVDKDVDVEIGDQQYKGQDHLSKQWKDFHKHAKLEIKDYKIDVEGDRLVINVDAVYNVNGQPRRNRYNLEFKLHNGKVRSVHFRIDPDEQRKMDS”, the protease stability score was found to be 1.44. The sequence “DNSELAQQRWRDLRKAISENDPKTARDLFDPNVRIEVGEKTLHGRKAASDFVKEIKKDYDHAYLQVTDVDVQGEHVHAHVVLHAEHNGKTTSVEMEMEAVFQGDKLRVRMMRKS” gave a protease stability score of 0.641.

In turn, “DNSVKKIVEEFWKAVKHGDPDKLRELADPNAKFDVGDKVLHGRDRAAKFLHDQHNNARFDITSLRIRVTNGRADIDVKLHVEHNGEPKTSSAKVIVRVRNGRMTELKIRERS” gave a protease stability score of 0.637. In the case of “DNTHLRMMEQLLKNRSTGDERKVRENADKHVKIDVGDKRLHGREHLQKQQESERTQADVEIQVQTIHDHNGQIVMQFEITVNVNGRPERDTWTLVAEADNGRLKKLSLDLDPDKLKTMES”, the protease stability score turned out to be 0.327.

For the sequence “DNTIKRKFHDLIRAWQTNDENRYMQLFDPNVKIRVGNQQFHGREDWSKWFREQMTHLRNDFTVKSLEVDGDKVVADIVAVLSINGRPNKMRVDYRMTVHNGKIKSAEMRFSHEIETKIEQ”, the protease stability score came to 1.46.

For “DPKKAFKVAEEAMKYFVKGNVDELKKILNPDGTARVADHETKGVEEIMKLLQRMKKHGVQVEVKEVRREGNQVEVHTVYHDGDETATLTVQYKAQNGKVDHIKVQYNERMKKIWEKG”, the protease stability score amounted to 1.2. In the case of “DPKKAHEVAEEVMKAFVNGNDEQVKRLLKPDVTAKVADRETQGPEQIVRYLRRFDKLGVQYHEEETRKEGNRVEVHTKYKKGDQEATVTVVYEADNGKVDRIEVRYDEEMKKLFEKG” it was 0.279.

As to “DPKKDLKVAEEVLKAMYSGDDEKAQKLVDPSVKAQTGDQKYHGTDDIKKMVKTFKDYGVEHEEKETKVDGGYAEVVIQAKIGNDEVEAKWRVYAKDGRVDYVQADITEKLTKLMQHG”, the protease stability score is -0.445.

Take “DPKKFHKAAVLLAQAAMNGDYKRVVELYKPDARLTLVDQEVQGQEQIKKHAKKFYDRGKRFQFKRVEVTGDYVKLQFDIEVGGTRVTFEARVHAQDDTVDEYELRFDDTAREMQERG”: the protease stability score was found to be 0.073. For the sequence “DPKKLKEAVEKVIQAMEKGNVEEVVKLYKPDVKFVLGDQEFRGREDVKKQAKKFYTKGARFQLRKVEVKGDKVEVVVDVEVGGTRKTFKFTLKVEDDTVDEYEIRFTEEAKKAKEKG”, the protease stability score was determined as 0.839. The sequence “DPKKLYKVAIRVVRAAVSGDVEKVVKMYKPDGKLTLGDQELRGREQIKKYADKFYRKGKRFQADHIRVTGNRVEVIMKFTLGGQTVTFQFYIKLKDDQVDEYEFRFNEEAEKMMRTG” gave a protease stability score of 0.276. For the sequence “DPKKMKEIADKMAKAVLNGNEEEVKKFGAPNVEAEVADQRTQGVDEIVKMLQKVKRMGMEVHTEEKREEGDFIEVHTKYRRGDTEATMTVQYYADNGKVKKIKVEYDRDAKKLFKHG”, the protease stability score is 0.232. In the case of “DPKKVEDVAKKVAKAFQDGNEEELKKHLDPTGRAKIADEETQGIEQIIKKLKKVMKLGVQVENKETRYEGNRVEFHTEYRDGDKQATMTVVYHADNGKVKEIRVQYDRDAKEMYEKG” it was 0.658. Turning to “DPKRTVKVAEEAAKILYNGDSDKAKKVFKPDLRVKIADRETQGVEQIVKELEKFQKIGVERETKEKRTEGDKVQFHTVYRNGSDQAKMTVEYQAKDGKVDRIQVDYDEKAKKIQEDG”, the protease stability score is -0.407. As for “DPKRVRQVAKEVAKAFLNGDKDKVKKYGDPNVKAKVLDEETQGVEQIMRELEKFMKLGVQYETKEVREEGDYVEVHTEYRDGDTTAKMTVIYKARDGKVEHLEVHYDRDARKIFRKG”, the protease stability score turned out to be 0.144.

Sequence “DPRKVKDAVRKVVEAMMNGDVEKIVKLYKPDGELYLGSQKVRGQEQVEKEAKKFYDKGARFQVKEQHVKGDNATVVFDMTANGQTVTFQFEIKVKDDTVDKYEVRFTEKADELRRKG” had a protease stability score of -0.136.

Sequence “DPTELLKYAEKLLEALMKGDSELATKMGKPDVEVQTGDQKYKGQDDLRKVVKKIKDYGVENKIDETEKDGGQVKVKIVARIGDREYTFTWVAEAENGKVRKVQLDIPEDLEKDLKHG” returned a protease stability score of 0.739. For the sequence “DPTKALRLADTALRAFANGNSDQVKQHLKPDVRARVVDEETQGVDQIVKQLQHFVKVGVQRQVDEVRHEGNQVEAHTQYQVGDNQATMTVVYRAQNGKVDEIEVRYDERAKKIFEQG”, the protease stability score is -0.115. “DPTKVDHVARRVLEYMVKGNAEEVRKMVKPNAEAQTGDQKYKGQDEIHKMVKTLKDYGIEVKRDEVRVDGGHAQLKIRANIGDRTYTARWQVEAKDGKVDRIQMDISEDLKKAIKHG”: the protease stability score is -0.022.

As to “DQDAARIYKHQVEAIKTGNPSKVMELADPNVEFHVGDRVITGREQLRNDVDRHKKQMRVEIRIEDITDQGEFANIRANVTIDVNGRPKTSRVNMRVFAHNGKVKSQDFQTSQ”, the protease stability score was determined as 0.52. In the case of “DQDAIRRLDEALRAEETGNEKQLKDLFDPNVEFVIGDDEYHGMDSYAKDVRRRKQNMRDHIEHVDMHDNGSQIHIRYRQVANINGTPVKYEITATAEVHNGRFKRMEYRIDEDEQRKLDS”, the protease stability score was 0.026. In turn, “DQDALRKWEEILKAMETGDREKVAQLVDPNARVVYGDKEVRGRESIRKRVKEIRDELRFSMELKRFDDHNGRASATLKMNAEHNGQPIHRTASVEIEVQNGRIKSMEIQLRG” gave a protease stability score of 0.062. In the case of “DQDAQRQLREAMKDEESGDHRSIRENIDPNAKLDVGDKDVTGRENVAKEIKHQVDESRVKIDHYRMEVHGDRVTVTFNAVETHNGQPRRKTYQVIFKIHNGQFKKIMMRTSQ”, the protease stability score turned out to be 0.546. For the sequence “DQDEIRQNARDLATGDPDRAREQADKHVRVEIGEKTLHGREKLEEWMKHIHERIDHNRVHDIQIDNGRVEASVNVDINGKKVVFTIVAEFDNGKIQRVQVDVRDHEVQKVMEEIDS”, the protease stability score worked out at 0.821.
